Results published in patent US20250084169A1 (published 2025).
Read-outs that look alike come from different tables or passages of the source.

How the values were obtained:
recombinant human CD19 = molecular target: T1, recombinant human CD19 (human, UniProt P15391 20-291)
T1 sequence (looked up): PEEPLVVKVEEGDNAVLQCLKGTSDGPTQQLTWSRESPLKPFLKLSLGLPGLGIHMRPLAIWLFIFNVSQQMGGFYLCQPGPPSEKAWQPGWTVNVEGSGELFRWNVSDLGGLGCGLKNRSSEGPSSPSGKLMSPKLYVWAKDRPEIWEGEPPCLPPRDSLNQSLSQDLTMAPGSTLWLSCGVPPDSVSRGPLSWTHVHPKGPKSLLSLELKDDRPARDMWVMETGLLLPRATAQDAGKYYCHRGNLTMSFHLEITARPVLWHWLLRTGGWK

[1] = molecular target: T2, recombinant human full-length CD20 (human, UniProt P11836 1-297)
T2 sequence (looked up): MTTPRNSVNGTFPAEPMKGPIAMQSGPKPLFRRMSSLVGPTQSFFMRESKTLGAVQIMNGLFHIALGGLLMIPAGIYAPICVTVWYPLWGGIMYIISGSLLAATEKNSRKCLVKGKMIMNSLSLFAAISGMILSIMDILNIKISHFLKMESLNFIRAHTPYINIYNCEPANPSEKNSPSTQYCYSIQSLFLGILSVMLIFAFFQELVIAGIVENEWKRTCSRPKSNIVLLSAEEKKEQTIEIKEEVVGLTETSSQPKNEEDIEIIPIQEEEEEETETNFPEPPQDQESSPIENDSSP

[2] = molecular target: T3, recombinant human Fc gamma RIIIa (CD16a) 158F (human, UniProt P08637 17-208)
[3] = molecular target: T4, recombinant human Fc gamma RIIIa (CD16a) 158V (human, UniProt P08637 17-208)
[4] = molecular target: T5, recombinant human Fc gamma RIIIb (CD16b) (human, UniProt O75015 17-200)
[5] = molecular target: T6, recombinant human Fc gamma RIIa (CD32a) 131H (human, UniProt P12318 36-218)
T6 sequence (looked up): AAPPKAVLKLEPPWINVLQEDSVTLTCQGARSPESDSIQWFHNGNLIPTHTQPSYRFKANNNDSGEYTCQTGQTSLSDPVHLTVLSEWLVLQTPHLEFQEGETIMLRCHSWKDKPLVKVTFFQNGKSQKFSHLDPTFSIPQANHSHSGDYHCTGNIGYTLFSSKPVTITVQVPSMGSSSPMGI

[6] = molecular target: T7, recombinant human Fc gamma RIIa (CD32a) 131R (human, UniProt P12318 36-218)
T7 sequence (looked up): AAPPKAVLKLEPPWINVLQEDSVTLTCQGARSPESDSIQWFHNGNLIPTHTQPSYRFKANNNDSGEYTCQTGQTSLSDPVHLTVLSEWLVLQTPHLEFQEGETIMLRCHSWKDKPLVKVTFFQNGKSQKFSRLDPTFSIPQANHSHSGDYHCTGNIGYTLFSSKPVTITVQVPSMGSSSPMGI

[7] = molecular target: T8, recombinant human Fc gamma RIIb/c (CD32b/c) (human, UniProt P31994 46-217)
T8 sequence (looked up): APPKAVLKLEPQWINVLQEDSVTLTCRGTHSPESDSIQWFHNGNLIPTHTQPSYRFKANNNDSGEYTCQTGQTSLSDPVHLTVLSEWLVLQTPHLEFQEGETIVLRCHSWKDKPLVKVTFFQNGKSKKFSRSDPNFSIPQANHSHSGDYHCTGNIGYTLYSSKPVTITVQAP

[8] = molecular target: T9, recombinant human Fc gamma RI (CD64) (human, UniProt P12314 16-288)
[9] = molecular target: T10, cynomolgus monkey Fc gamma receptor CD16 (cynomolgus monkey, UniProt Q8SPW2 17-208)
[10] = molecular target: T11, cynomolgus monkey Fc gamma receptor CD32a (cynomolgus monkey)
[11] = molecular target: T12, cynomolgus monkey Fc gamma receptor CD32b (cynomolgus monkey)
[12] = molecular target: T10, cynomolgus monkey Fc gamma receptor CD16; remark: listed apart in the source
[13] = molecular target: T11, cynomolgus monkey Fc gamma receptor …; remark: listed apart in the source
[14] = molecular target: T12, cynomolgus monkey Fc gamma receptor …; remark: listed apart in the source
[15] = molecular target: T13, recombinant cynomolgus monkey CD19 (cynomolgus monkey, UniProt A0A2K5W8L9 20-292)
T13 sequence: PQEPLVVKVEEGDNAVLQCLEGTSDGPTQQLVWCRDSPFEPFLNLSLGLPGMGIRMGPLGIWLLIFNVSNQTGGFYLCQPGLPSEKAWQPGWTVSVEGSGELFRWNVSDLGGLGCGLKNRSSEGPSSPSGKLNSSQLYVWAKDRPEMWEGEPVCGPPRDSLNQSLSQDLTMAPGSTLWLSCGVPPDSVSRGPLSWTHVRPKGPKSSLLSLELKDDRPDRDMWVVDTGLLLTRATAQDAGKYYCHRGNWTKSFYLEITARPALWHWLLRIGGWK

[16] = molecular target: T14, recombinant cynomolgus monkey CD20 (cynomolgus monkey, UniProt M4ZHZ6 1-297)
T14 sequence: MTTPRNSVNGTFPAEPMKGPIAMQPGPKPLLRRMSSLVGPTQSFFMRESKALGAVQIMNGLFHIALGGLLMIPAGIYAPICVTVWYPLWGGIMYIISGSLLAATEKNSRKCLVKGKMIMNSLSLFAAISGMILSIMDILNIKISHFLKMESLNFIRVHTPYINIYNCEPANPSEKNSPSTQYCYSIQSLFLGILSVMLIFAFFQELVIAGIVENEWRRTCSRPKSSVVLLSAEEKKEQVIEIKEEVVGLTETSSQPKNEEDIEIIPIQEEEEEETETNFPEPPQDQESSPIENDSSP

[17] = molecular target: T3, recombinant human Fc gamma RIIIa …; remark: listed apart in the source
[18] = molecular target: T4, recombinant human Fc gamma RIIIa …; remark: listed apart in the source
[19] = molecular target: T5, recombinant human Fc gamma RIIIb (CD16b); remark: listed apart in the source
[20] = molecular target: T7, recombinant human Fc gamma RIIa (CD32a) …; remark: listed apart in the source
[21] = molecular target: T8, recombinant human Fc gamma RIIb/c …; remark: listed apart in the source
[22] = molecular target: T9, recombinant human Fc gamma RI (CD64); remark: listed apart in the source

T10 sequence (Q8SPW2 17-208 limits assumed): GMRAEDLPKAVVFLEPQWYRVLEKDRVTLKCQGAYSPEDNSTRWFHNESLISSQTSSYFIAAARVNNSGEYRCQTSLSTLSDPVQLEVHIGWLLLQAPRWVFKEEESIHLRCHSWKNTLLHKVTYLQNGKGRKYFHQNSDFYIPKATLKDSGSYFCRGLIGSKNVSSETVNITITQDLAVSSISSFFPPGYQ
T5 sequence (O75015 17-200 limits assumed): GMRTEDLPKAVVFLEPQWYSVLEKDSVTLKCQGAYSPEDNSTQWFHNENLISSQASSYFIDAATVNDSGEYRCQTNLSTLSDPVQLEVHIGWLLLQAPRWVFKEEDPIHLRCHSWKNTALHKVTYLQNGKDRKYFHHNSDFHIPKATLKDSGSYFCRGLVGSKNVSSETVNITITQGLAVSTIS
T9 sequence (P12314 16-288 limits assumed): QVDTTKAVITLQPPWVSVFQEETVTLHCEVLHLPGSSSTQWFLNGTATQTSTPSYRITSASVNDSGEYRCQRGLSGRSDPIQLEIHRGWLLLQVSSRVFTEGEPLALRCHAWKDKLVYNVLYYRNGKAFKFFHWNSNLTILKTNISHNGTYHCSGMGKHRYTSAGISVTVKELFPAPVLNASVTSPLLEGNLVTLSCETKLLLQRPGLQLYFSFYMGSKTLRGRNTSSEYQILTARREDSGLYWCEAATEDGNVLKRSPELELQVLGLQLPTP
T3 sequence (P08637 17-208 limits assumed): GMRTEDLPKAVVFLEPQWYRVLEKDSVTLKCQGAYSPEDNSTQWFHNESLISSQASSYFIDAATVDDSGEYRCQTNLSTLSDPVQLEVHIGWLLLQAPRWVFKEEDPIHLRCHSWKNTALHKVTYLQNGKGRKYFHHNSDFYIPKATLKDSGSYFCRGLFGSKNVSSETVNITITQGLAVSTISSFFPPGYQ
T4 sequence (P08637 17-208 F176V limits assumed): as the sequence (P08637 17-208 limits assumed) above, with F160V counted along it

B1: B19c66AAC9 (antibody, human IgG1, kappa)
light: not shown
heavy: QVQLQQSGAELVRPGSSVKISCKASGYAFSSYWMNWVKQRPGQGLEWIGQIWPGDGDTNYNGKFKGKATLTADESSSTAYMQLSSLASEDSAVYFCARRETTTVGRYYYAMDYWGQGTTVTVSSASTKGPSVFPLAPSSKSTSGGTAALGCLVKDYFPEPVTVSWNSGALTSGVHTFPAVLQSSGLYSLSSVVTVPSSSLGTQTYICNVNHKPSNTKVDKKVEPKSCDKTHTCPPCPAPKRRGGPSVFLFPPKPKDTLMISRTPEVTCVVVDVSHEDPEVKFNWYVDGVEVHNAKTKPREEQYNSTYRVVSVLTVLHQDWLNGKEYKCKVSNKALPAPIEKTISKAKGQPREPQVYVLPPSRDELTKNQVSLLCLVKGFYPSDIAVEWESNGQPENNYLTWPPVLDSDGSFFLYSKLTVDKSRWQQGNVFSCSVMHEALHNHYTQKSLSLSPGK
chain: CPPCPAPEDEGGPSVFLFPPKPKDTLMISRTPEVTCVVVDVSHEDPEVKFNWYVDGVEVHNAKTKPREEQYNSTYRVVSVLTVLHQDWLNGKEYKCKVSNKALPAPIEKTISKAKGQPREPQVYVYPPSRDELTKNQVSLTCLVKGFYPSDIAVEWESNGQPENNYKTTPPVLDSDGSFALVSKLTVDKSRWQQGNVFSCSVMHEALHNHYTQKSLSLSPGK
Kd (CD19 (target of Table 9)): 21 nM

B2: HB2198 (bispecific antibody, human IgG1, kappa)
heavy 1: QVQLVQSGGGVVQPGRSLRLSCAASGVSLPDYGVSWVRKAPGKGLEWVAVIWGSETTYYNSALKSRFTISRDNSKNTLYLQMSSLRAEDTAVYYCAKHYYYGGSFAMDYWGQGTLVTVSSASTKGPSVFPLAPSSKSTSGGTAALGCLVKDYFPEPVTVSWNSGALTSGVHTFPAVLQSSGLYSLESVVTVPSSSLGTQTYICNVNHKPSNTKVDKKVEPKSCTDWSPYADQSIKVRISLKSALGDKAYEWNDNEMYLFRSSVAYAMRQYFLKVKNQMILFGEEDVRVANLKPRISFNFFVTAPKNVSDIIPRTEVEKAIRMSRSRINDAFRLNDNSLEFLGIQPTLGPPNQPPVSTSTSPTRSMAPGAVHLPQPVSTRDKTHTCPPCPAPELLGGPDVFLFPPKPKDTLMISRTPEVTCVVVDVSHEDPEVKFNWYVDGVEVHNAKTKPREEQYNSTYRVVSVLTVLHQDWLNGKEYKCKVSNKALPAPEEKTISKAKGQPREPQVCTLPPSRDELTKNQVSLSCAVKGFYPSDIAVEWESNGQPENNYKTTPPVLDSDGSFFLVSKLTVDKSRWQQGNVFSCSVMHEALHNRFTQKSLSLSPG
heavy 2: QIVLSQSPAILSASPGEKVTMTCRASSSVSYIHWFQKKPGSSPKPWIYATSNLASGVPVRFSGSGSGTSYSLTISRVEAEDAATYYCQQWTSNPPTFGGGTKVEIKSSASTKGPSVFPLAPSSKSTSGGTAALGCLVKDYFPEPVTVSWNSGALTSGVHTFPAVLQSSGLYSLKSVVTVPSSSLGTQTYICNVNHKPSNTKVDKKVEPKSCDKTHTCPPCPAPELLGGPDVFLFPPKPKDTLMISRTPEVTCVVVDVSHEDPEVKFNWYVDGVEVHNAKTKPREEQYNSTYRVVSVLTVLHQDWLNGKEYKCKVSNKALPAPEEKTISKAKGQPREPQVYTLPPCRDELTKNQVSLWCLVKGFYPSDIAVEWESNGQPENNYKTTPPVLDSDGSFFLYSKLTVDKSRWQQGNVFSCSVMHEALHNHYTQKSLSLSPG
light 1: DIQMTQSPSSLSASVGDRVTITCRASQDISKYLNWYQEKPGKAIKLLIYHTSRLHSGVPSRFSGSGSGTDFTLTISSLQPEDFATYYCQQGATLPYTFGPGTKLEIKRTVAAPSVFIFPPSDEQLKSGTASVKCLLNNFYPREAKVQWKVDNALQSGNSQESVTEQDSKDSTYSLSSTLTLSKADYEKHKVYACEVTHQGLSSPVTKSFNRGEC
light 2: QVQLQQPGAELVKPGASVKMSCKASGYTFTSYNMHWVKETPGRGLEWIGAIYPGNGDTSYNQKFKGKATLTADKSSSTAYMQLSSLTSEDSAVYYCARSTYYGGDWYFNVWGAGTLVTVSSASVAAPSVFIFPPSDEQLKSGTASVECLLNNFYPREAKVQWKVDNALQSGNSQESVTEQDSKDSTYSLSSTLTLSKADYEKHKVYACEVTHQGLSSPVTKSFNRGEC
Kd (recombinant human CD19): 1.5 nM
Kd [1]: 0.2 nM
Kd [2]: < 2 nM
Kd [3]: < 2 nM
Kd [4]: < 2 nM
Kd [5]: < 2 nM
Kd [6]: < 2 nM
Kd [7]: 2.2 nM
Kd [8]: < 0.02 nM
Kd [9]: 2 nM
Kd [10]: 4 nM
Kd [11]: 3.4 nM
Kd [12]: 1.76 nM
Kd [13]: 305 nM
Kd [14]: 218 nM
Kd [15]: 410 nM
Kd [16]: 1.4 nM
Kd [17]: 15.7 nM
Kd [18]: 4.19 nM
Kd [19]: 95 nM
Kd [20]: 128 nM
Kd [21]: 283 nM
Kd [22]: < 0.02 nM
